{"source": "patent US20170266254A1", "about": "(AILERON THERAPEUTICS, published 2017)", "binders": {"B1": {"name": "SP30 (peptide)", "peptide": "Ac-LGANDELISFKDEGEQEEKSSENSSA[S5]RDL[S5]DVKSSLV-NH2", "modifications": "staple 27-31", "SMILES": "CC[C@H](C)[C@H](NC(=O)[C@H](CC(C)C)NC(=O)[C@H](CCC(=O)O)NC(=O)[C@H](CC(=O)O)NC(=O)[C@H](CC(N)=O)NC(=O)[C@H](C)NC(=O)CNC(=O)[C@H](CC(C)C)NC(C)=O)C(=O)N[C@@H](CO)C(=O)N[C@@H](Cc1ccccc1)C(=O)N[C@@H](CCCCN)C(=O)N[C@@H](CC(=O)O)C(=O)N[C@@H](CCC(=O)O)C(=O)NCC(=O)N[C@@H](CCC(=O)O)C(=O)N[C@@H](CCC(N)=O)C(=O)N[C@@H](CCC(=O)O)C(=O)N[C@@H](CCC(=O)O)C(=O)N[C@@H](CCCCN)C(=O)N[C@@H](CO)C(=O)N[C@@H](CO)C(=O)N[C@@H](CCC(=O)O)C(=O)N[C@@H](CC(N)=O)C(=O)N[C@@H](CO)C(=O)N[C@@H](CO)C(=O)N[C@@H](C)C(=O)N[C@@]1(C)CCCC=CCCC[C@@](C)(C(=O)N[C@@H](CC(=O)O)C(=O)N[C@H](C(=O)N[C@@H](CCCCN)C(=O)N[C@@H](CO)C(=O)N[C@@H](CO)C(=O)N[C@@H](CC(C)C)C(=O)N[C@H](C(N)=O)C(C)C)C(C)C)NC(=O)[C@H](CC(C)C)NC(=O)[C@H](CC(=O)O)NC(=O)[C@H](CCCNC(=N)N)NC1=O"}, "B2": {"name": "SP58 (peptide)", "peptide": "Ac-LGANDELLSF[S5]DEG[S5]QQEKSSENSSA[S5]RDL[S5]NVKSSLV-NH2", "modifications": "staple 11-15, 27-31", "SMILES": "CC(=O)N[C@@H](CC(C)C)C(=O)NCC(=O)N[C@@H](C)C(=O)N[C@@H](CC(N)=O)C(=O)N[C@@H](CC(=O)O)C(=O)N[C@@H](CCC(=O)O)C(=O)N[C@@H](CC(C)C)C(=O)N[C@@H](CC(C)C)C(=O)N[C@@H](CO)C(=O)N[C@@H](Cc1ccccc1)C(=O)N[C@@]1(C)CCCC=CCCC[C@@](C)(C(=O)N[C@@H](CCC(N)=O)C(=O)N[C@@H](CCC(N)=O)C(=O)N[C@@H](CCC(=O)O)C(=O)N[C@@H](CCCCN)C(=O)N[C@@H](CO)C(=O)N[C@@H](CO)C(=O)N[C@@H](CCC(=O)O)C(=O)N[C@@H](CC(N)=O)C(=O)N[C@@H](CO)C(=O)N[C@@H](CO)C(=O)N[C@@H](C)C(=O)N[C@@]2(C)CCCC=CCCC[C@@](C)(C(=O)N[C@@H](CC(N)=O)C(=O)N[C@H](C(=O)N[C@@H](CCCCN)C(=O)N[C@@H](CO)C(=O)N[C@@H](CO)C(=O)N[C@@H](CC(C)C)C(=O)N[C@H](C(N)=O)C(C)C)C(C)C)NC(=O)[C@H](CC(C)C)NC(=O)[C@H](CC(=O)O)NC(=O)[C@H](CCCNC(=N)N)NC2=O)NC(=O)CNC(=O)[C@H](CCC(=O)O)NC(=O)[C@H](CC(=O)O)NC1=O"}, "B3": {"name": "SP47 (peptide)", "peptide": "Ac-LGANDELISF[S5]DEG[S5]QEEKSSENSSA[S5]RDL[S5]NVKSSLV-NH2", "modifications": "staple 11-15, 27-31", "SMILES": "CC[C@H](C)[C@H](NC(=O)[C@H](CC(C)C)NC(=O)[C@H](CCC(=O)O)NC(=O)[C@H](CC(=O)O)NC(=O)[C@H](CC(N)=O)NC(=O)[C@H](C)NC(=O)CNC(=O)[C@H](CC(C)C)NC(C)=O)C(=O)N[C@@H](CO)C(=O)N[C@@H](Cc1ccccc1)C(=O)N[C@@]1(C)CCCC=CCCC[C@@](C)(C(=O)N[C@@H](CCC(N)=O)C(=O)N[C@@H](CCC(=O)O)C(=O)N[C@@H](CCC(=O)O)C(=O)N[C@@H](CCCCN)C(=O)N[C@@H](CO)C(=O)N[C@@H](CO)C(=O)N[C@@H](CCC(=O)O)C(=O)N[C@@H](CC(N)=O)C(=O)N[C@@H](CO)C(=O)N[C@@H](CO)C(=O)N[C@@H](C)C(=O)N[C@@]2(C)CCCC=CCCC[C@@](C)(C(=O)N[C@@H](CC(N)=O)C(=O)N[C@H](C(=O)N[C@@H](CCCCN)C(=O)N[C@@H](CO)C(=O)N[C@@H](CO)C(=O)N[C@@H](CC(C)C)C(=O)N[C@H](C(N)=O)C(C)C)C(C)C)NC(=O)[C@H](CC(C)C)NC(=O)[C@H](CC(=O)O)NC(=O)[C@H](CCCNC(=N)N)NC2=O)NC(=O)CNC(=O)[C@H](CCC(=O)O)NC(=O)[C@H](CC(=O)O)NC1=O"}, "B4": {"name": "SP49 (peptide)", "peptide": "Ac-LGANDELISF[S5]DEG[S5]QQQKSSENSSA[S5]RDL[S5]NVKSSLV-NH2", "modifications": "staple 11-15, 27-31", "SMILES": "CC[C@H](C)[C@H](NC(=O)[C@H](CC(C)C)NC(=O)[C@H](CCC(=O)O)NC(=O)[C@H](CC(=O)O)NC(=O)[C@H](CC(N)=O)NC(=O)[C@H](C)NC(=O)CNC(=O)[C@H](CC(C)C)NC(C)=O)C(=O)N[C@@H](CO)C(=O)N[C@@H](Cc1ccccc1)C(=O)N[C@@]1(C)CCCC=CCCC[C@@](C)(C(=O)N[C@@H](CCC(N)=O)C(=O)N[C@@H](CCC(N)=O)C(=O)N[C@@H](CCC(N)=O)C(=O)N[C@@H](CCCCN)C(=O)N[C@@H](CO)C(=O)N[C@@H](CO)C(=O)N[C@@H](CCC(=O)O)C(=O)N[C@@H](CC(N)=O)C(=O)N[C@@H](CO)C(=O)N[C@@H](CO)C(=O)N[C@@H](C)C(=O)N[C@@]2(C)CCCC=CCCC[C@@](C)(C(=O)N[C@@H](CC(N)=O)C(=O)N[C@H](C(=O)N[C@@H](CCCCN)C(=O)N[C@@H](CO)C(=O)N[C@@H](CO)C(=O)N[C@@H](CC(C)C)C(=O)N[C@H](C(N)=O)C(C)C)C(C)C)NC(=O)[C@H](CC(C)C)NC(=O)[C@H](CC(=O)O)NC(=O)[C@H](CCCNC(=N)N)NC2=O)NC(=O)CNC(=O)[C@H](CCC(=O)O)NC(=O)[C@H](CC(=O)O)NC1=O"}, "B5": {"name": "SP48 (peptide)", "peptide": "Ac-LGANDELISF[S5]DQG[S5]QEQKSSENSSA[S5]RDL[S5]NVKSSLV-NH2", "modifications": "staple 11-15, 27-31", "SMILES": "CC[C@H](C)[C@H](NC(=O)[C@H](CC(C)C)NC(=O)[C@H](CCC(=O)O)NC(=O)[C@H](CC(=O)O)NC(=O)[C@H](CC(N)=O)NC(=O)[C@H](C)NC(=O)CNC(=O)[C@H](CC(C)C)NC(C)=O)C(=O)N[C@@H](CO)C(=O)N[C@@H](Cc1ccccc1)C(=O)N[C@@]1(C)CCCC=CCCC[C@@](C)(C(=O)N[C@@H](CCC(N)=O)C(=O)N[C@@H](CCC(=O)O)C(=O)N[C@@H](CCC(N)=O)C(=O)N[C@@H](CCCCN)C(=O)N[C@@H](CO)C(=O)N[C@@H](CO)C(=O)N[C@@H](CCC(=O)O)C(=O)N[C@@H](CC(N)=O)C(=O)N[C@@H](CO)C(=O)N[C@@H](CO)C(=O)N[C@@H](C)C(=O)N[C@@]2(C)CCCC=CCCC[C@@](C)(C(=O)N[C@@H](CC(N)=O)C(=O)N[C@H](C(=O)N[C@@H](CCCCN)C(=O)N[C@@H](CO)C(=O)N[C@@H](CO)C(=O)N[C@@H](CC(C)C)C(=O)N[C@H](C(N)=O)C(C)C)C(C)C)NC(=O)[C@H](CC(C)C)NC(=O)[C@H](CC(=O)O)NC(=O)[C@H](CCCNC(=N)N)NC2=O)NC(=O)CNC(=O)[C@H](CCC(N)=O)NC(=O)[C@H](CC(=O)O)NC1=O"}, "B6": {"name": "SP38 (peptide)", "peptide": "LGANDELISFADEGAQEEKSSNNSSAEADLAAVKSSLV", "modifications": "not fully specified; N-terminal acetyl; C-terminal amide; $ = (S)-alpha-(2'-pentenyl)alanine at positions 11 and 15 (first crosslink) and 28 and 32 (second crosslink), each pair joined by an all-carbon crosslinker with one double bond"}, "B7": {"name": "SP31 (peptide)", "peptide": "Ac-LGANDELISFKDEGEQEEKSSENSSAE[S5]DLA[S5]VKSSLV-NH2", "modifications": "staple 28-32", "SMILES": "CC[C@H](C)[C@H](NC(=O)[C@H](CC(C)C)NC(=O)[C@H](CCC(=O)O)NC(=O)[C@H](CC(=O)O)NC(=O)[C@H](CC(N)=O)NC(=O)[C@H](C)NC(=O)CNC(=O)[C@H](CC(C)C)NC(C)=O)C(=O)N[C@@H](CO)C(=O)N[C@@H](Cc1ccccc1)C(=O)N[C@@H](CCCCN)C(=O)N[C@@H](CC(=O)O)C(=O)N[C@@H](CCC(=O)O)C(=O)NCC(=O)N[C@@H](CCC(=O)O)C(=O)N[C@@H](CCC(N)=O)C(=O)N[C@@H](CCC(=O)O)C(=O)N[C@@H](CCC(=O)O)C(=O)N[C@@H](CCCCN)C(=O)N[C@@H](CO)C(=O)N[C@@H](CO)C(=O)N[C@@H](CCC(=O)O)C(=O)N[C@@H](CC(N)=O)C(=O)N[C@@H](CO)C(=O)N[C@@H](CO)C(=O)N[C@@H](C)C(=O)N[C@@H](CCC(=O)O)C(=O)N[C@@]1(C)CCCC=CCCC[C@@](C)(C(=O)N[C@H](C(=O)N[C@@H](CCCCN)C(=O)N[C@@H](CO)C(=O)N[C@@H](CO)C(=O)N[C@@H](CC(C)C)C(=O)N[C@H](C(N)=O)C(C)C)C(C)C)NC(=O)[C@H](C)NC(=O)[C@H](CC(C)C)NC(=O)[C@H](CC(=O)O)NC1=O"}, "B8": {"name": "SP57 (peptide)", "peptide": "LGANDELISFANQGAQEEKSSNNSSAARNLADVKSSLV", "modifications": "not fully specified; N-terminal acetyl; C-terminal amide; $ = (S)-alpha-(2'-pentenyl)alanine at positions 11 and 15 (first crosslink) and 27 and 31 (second crosslink), each pair joined by an all-carbon crosslinker with one double bond"}}, "note": "Bridges are numbered along the chain shown (N, C = ends). [ ]: non-standard residue; d: D form. S5 = C=CCCC[C@](C)(N)C(=O)O", "data": [{"biological_target": "T1, C-terminally 6x Histidine-tagged Beta-Catenin (aa 134-668, 59 KD) (UniProt P35222 134-668)", "T1 construct": "range 134-668; Armadillo repeat region", "T1 sequence": "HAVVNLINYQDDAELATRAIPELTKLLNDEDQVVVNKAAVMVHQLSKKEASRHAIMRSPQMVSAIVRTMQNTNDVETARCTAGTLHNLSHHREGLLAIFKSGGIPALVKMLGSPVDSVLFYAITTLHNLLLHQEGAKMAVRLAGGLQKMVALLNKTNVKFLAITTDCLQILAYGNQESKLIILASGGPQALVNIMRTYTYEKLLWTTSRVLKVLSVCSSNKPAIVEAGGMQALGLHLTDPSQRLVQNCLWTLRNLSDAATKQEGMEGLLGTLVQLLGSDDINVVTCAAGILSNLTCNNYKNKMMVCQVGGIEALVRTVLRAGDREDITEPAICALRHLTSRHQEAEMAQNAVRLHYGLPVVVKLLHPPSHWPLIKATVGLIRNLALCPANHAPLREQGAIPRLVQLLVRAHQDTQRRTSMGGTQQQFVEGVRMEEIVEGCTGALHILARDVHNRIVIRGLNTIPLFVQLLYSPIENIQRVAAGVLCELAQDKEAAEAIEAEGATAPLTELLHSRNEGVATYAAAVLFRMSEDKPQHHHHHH", "assay": "competitive fluorescence polarization, FAM-labelled linear probe as competitor, His-tagged beta-catenin 134-668", "experimental": "The following experiments are performed at room temperature unless otherwise noted. First, an assay buffer is prepared composed of 25 mM Tris-Hcl pH 7.5, 200 mM Sodium Chloride, and 5 mM CHAPS. Next, 1M DTT is added to assay buffer to a final concentration of 2 mM. […] Forty μl of this protein stock is added to all but six wells of a 96 well plate (which will serve as the free peptide and Blank). Test competitor peptides are diluted from 1 mM DMSO stocks to 2× working stocks in assay buffer. Further dilutions are made in assay buffer-DMSO as to maintain a constant DMSO concentration in all wells. The dilution is carried out such that the peptides have a working concentration range of 40 μM-0.7 μM (2×). As a benchmark, a linear, non-crosslinked peptide competitor is prepared as above but with a working concentration range of 13-0.7 μM. Fifty μl of the competitor 2× stocks are added to the 40 μl of protein solution previously transferred into the assay 96 well plate. Next, a 10× stock of the fluorescent probe is prepared. The probe is identical to the linear benchmark peptide except for the n-terminal conjugation of a FAM flourophore with Beta-Alanine spacer. A 1 mM DMSO stock of the probe is serially diluted to a final concentration of 25 nM (10×) and 10 μl of this stock is added to all wells except for those that will serve as the blank. The assay plate is stored in the dark and the reaction is allowed to run at room temperature for three hours. The reaction is then read on a Biotek Synergy 2 with the following settings: 100 ms delay, 40 measurements per well, with excitation filters of […], and emission filters of […]. Data is then analyzed in Graphpad Prism.", "units": {"IC50": "nM"}, "values": [{"binder": "B1", "IC50": 98}, {"binder": "B2", "IC50": 324}, {"binder": "B3", "IC50": 176}, {"binder": "B4", "IC50": 1650}, {"binder": "B5", "IC50": 461}, {"binder": "B6", "IC50": 83}, {"binder": "B7", "IC50": 248}, {"binder": "B8", "IC50": 407}]}]}
